Biological target: the molecule itself
Assay: fluorescence image moment analysis; CLSM images of rat kidney cryostat sections immunolabelled with primary anti-NBCe1-A antibody and Alexa 488 secondary antibody; proximal tubule basolateral membranes; brightness normalised to non-specifically bound antibody (44±4 iu = 1 MEU)

B1: native NBCe1-A in rat kidney (proximal tubule basolateral cell membranes) (natural protein, rat (endogenous in rat kidney), UniProt Q9JI66-2 1-1035, looked up)
chain: MSTENVEGKPNNLGERGRARSSTFLRVFQPMFNHSIFTSAVSPAAERIRFILGEEDDSPAPPQLFTELDELLAVDGQEMEWKETARWIKFEEKVEQGGERWSKPHVATLSLHSLFELRTCMEKGSIMLDREASSLPQLVEMIADHQIETGLLKPDLKDKVTYTLLRKHRHQTKKSNLRSLADIGKTVSSASRMFSNPDNGSPAMTHRNLTSSSLNDISDKPEKDQLKNKFMKKLPRDAEASNVLVGEVDFLDTPFIAFVRLQQAVMLGALTEVPVPTRFLFILLGPKGKAKSYHEIGRAIATLMSDEVFHDIAYKAKDRHDLIAGIDEFLDEVIVLPPGEWDPAIRIEPPKSLPSSDKRKNMYSGGENVQMNGDTPHDGGHGGGGHGDCEELQRTGRFCGGLIKDIKRKAPFFASDFYDALNIQALSAILFIYLATVTNAITFGGLLGDATDNMQGVLESFLGTAVSGAIFCLFAGQPLTILSSTGPVLVFERLLFNFSKDHSFDYLEFRLWIGLWSAFMCLILVATDASFLVQYFTRFTEEGFSSLISFIFIYDAFKKMIKLADYYPINSDFRVGYNTHFSCACLPPDPVNLSVSNDTTLAPEDLPTVSSTDMYHNATFDWAYLSKKECVKFGGKLVGNNCDFVPDITLMSFILFLGTYTSSMAMKKFKTSRYFPTTARKLISDFAIILSILIFCVIDALVGVDTPKLIVPSEFKPTSPHRGWFVPPFGGNPWWVCLAAAIPALLVTILIFMDQQITAVIVNRKEHKLKKGAGYHLDLFWVAILMVVCSFMALPWYVAATVISIAHIDSLKMETETSAPGEQPKFLGVREQRVTGTLVFILTGLSVFMAPILKFIPMPVLYGVFLYMGVASLNGVQFMDRLKLLLMPLKHQPDFIYLRHVPLRRVHLFTSLQVLCLALLWILKSTVAAIIFPVMILALVAVRKGMDYLFSQHDLSFLDDVIPEKDKKKKEDEKKKKKKKGSLDSDNDDSDCPYSEKVPSIKIPMDITEQQPFLSDNKPLDRERSSTFLERHTSC
notes: Detected by a primary rabbit anti-NBCe1-A antibody and an Alexa 488 secondary antibody; also called endogenous NBCe1-A; immunolabeled NBCe1-A; source: endogenous, rat kidney cryostat sections (bought: Zyagen RF-901)
stoichiometry N: 2

Reference: PMC3338697, “Determination of Membrane Protein Transporter Oligomerization in Native Tissue Using Spatial Fluorescence Intensity Fluctuation Analysis” (PLoS ONE, 2012)
